From patent US6458552B1, “Metalloprotease peptide substrates and methods” (Ortho-McNeil Pharmaceutical, Inc., priority 2000, dated 2002)

B1: soluble recombinant human ADAM15, active form (protein)
chain: DVVTETKTVELVIVADHSEAQKYRDFQHLLNRTLEVALLLDTFFRPLNVRVALVGLEAWTQRDLVEISPNPAVTLENFLHWRRAHLLPRLPHDSAQLVTGTSFSGPTVGMAIQNSICSPDFSGGVNMDHSTSILGVASSIAHELGHSLGLDHDLPGNSCPCPGPAPAKTCIMEASTDFLPGLNFSNCSRRALEKALLDGMGSCLFERL
B2: soluble recombinant human MDC-L, active form (protein)
chain: VQEHEKYIEYYLVLDNGEFKRYNENQDEIRKRVFEMANYVNMLYKKLNTHVALVGMEIWTDKDKIKITPNASFTLENFSKWRGSVLSRRKRHDIAQLITATELAGTTVGLAFMSTMCSPYSVGVVQDHSDNLLRVAGTMAHEMGHNFGMFHDDYSCKCPSTICVMDKALSFYIPTDFSSCSRLSYDKFFEDKLSNCLFNAP
B3: recombinant ADAM17 (protein)
chain: RADPDPMKNTCKLLVVADHRFYRYMGRGEESTTTNYLIELIDRVDDIYRNTSWDNAGFKGYGIQIEQIRILKSPQEVKPGEKHYNMAKSYPNEEKDAWDVKMLLEQFSFDIAEEASKVCLAHLFTYQDFDMGTLGLAYVGSPRANSHGGVCPKAYYSPVGKKNIYLNSGLTSTKNYGKTILTKEADLVTTHELGHNFGAEHDPDGLAECAPNEDQGGKYVMYPIAVSGDHENNKMFSNCSKQSIYKTIESKAQECFQERSNKV
B4: soluble recombinant human ADAM8, active (processed) form (protein)
chain: RYVELYVVVDNAEFQMLGSEAAVRHRVLEVVNHVDKLYQKLNFRVVLVGLEIWNSQDRFHVSPDPSVTLENLLTWQARQRTRRHLHDNVQLITGVDFTGTTVGFARVSAMCSHSSGAVNQDHSKNPVGVACTMAHEMGHNLGMDHDENVQGCRCQERFEAGRCIMAGSIGSSFPRMFSDCSQAYLESFLERPQSVCLANAP
B5: MDC-L: recombinant soluble MDC-L: pro- and protease domains with C-terminal FLAG epitope (protein)
chain: B2 chain
modifications: left off: small tags and cut ends

Legend:
ADAM8 = ADAM8 protein expression in THP-1 cells (immunoblot); type: cell-based, human; conditions: LPS 100 ng/ml 16 hours, IFN-γ 200U/ml 24 hours
Experimental: Polyclonal antisera against ADAM8 and ADAM15 were generated by immunizing rabbits with KLH-conjugated peptides corresponding to the C-terminal sequences of ADAM8 and 15, respectively. The antisera were used to detect ADAM8 and ADAM15 in THP-1 cell lysates. THP-1 cells were treated with interferon(IFN)-γ (200U/ml) or bacterial lipopolysaccharide (LPS) (100 ng/ml), for 24 hours or 16 hours, respectively. The cells were then harvested, washed with PBS and lysed in PBS containing 1% NP-40 and Complete® protease inhibitors. The cell extracts were analyzed for expression of ADAM8 and ADAM15 by SDS-PAGE, transfer to nitrocellulose, and immunoblotting with the antisera to ADAM8 and ADAM15, respectively. […] The corresponding pre-immune sera gave no positive bands at these molecular weights for THP-1 cell extracts in similar assays.

[1] = target: T1, AD8P FRET peptide X-RTAAVFRP-Z (not fully specified)
T1 chain: RTAAVFRP

[2] = target: T2, AD8P2 FRET peptide X-RVRRALPS-Z (not fully specified)
T2 chain: RVRRALPS

[3] = target: T3, CD27L FRET peptide X-RFAQAQQQLP-Z (not fully specified)
T3 chain: RFAQAQQQLP

[4] = target: T4, CatE FRET peptide X-KPAAFFRL-Z (not fully specified)
T4 chain: KPAAFFRL

[5] = target: T5, CatE1 FRET peptide X-KPAKFFRL-Z (not fully specified)
T5 chain: KPAKFFRL

[6] = target: T6, KAS-1 FRET peptide Z-RGVVNASSRLAK-X (not fully specified)
T6 chain: RGVVNASSRLAK

[7] = target: T7, KL1 FRET peptide X-PPVAASSLRN-Z (not fully specified)
T7 chain: PPVAASSLRN

[8] = target: T8, Mat FRET peptide Z-RPLGLAR-X (not fully specified)
T8 chain: RPLGLAR

[9] = target: T9, TNFB2 FRET peptide X-PSAAQTARQHP-Z (not fully specified)
T9 chain: PSAAQTARQHP

[10] = target: T10, TNFα FRET peptide X-PLAQAVRSSS-Z (not fully specified)
T10 chain: PLAQAVRSSS

[11] = target: T11, TNFα(-4 + 6) FRET peptide Z-LAQAVRSSSR-X (not fully specified)
T11 chain: LAQAVRSSSR

membrane-bound CD23 = assay: Cleavage of CD23 from the surface of U937 cells by ADAM enzymes (flow cytometry); type: cell-based, human; conditions: U-937 cells, one hour at 37° C.
Experimental: U-937 (ATCC CRL-1593.2), a monoblastoid cell line, were harvested, washed and resuspended in HEPES-buffered saline, pH 7.5. Then the cells were treated for one hour at 37° C. in the absence or presence of ADAM8, ADAM17, ADAM15 or MDC-L. As a further control, some cells were incubated in the presence of ADAM8, ADAM17, ADAM15 or MDC-L with the addition of Inhibitor C. Intact, membrane-bound CD23 was then detected by staining the cells with a FITC-conjugated anti-human CD23 antibody (Pharmingen) and detection by flow cytometry.

Molecule	Relative proteolytic activity [1]	Relative proteolytic activity [2]	Relative proteolytic activity [3]	Relative proteolytic activity [4]	Relative proteolytic activity [5]	Relative proteolytic activity [6]	Relative proteolytic activity [7]	Relative proteolytic activity [8]	Relative proteolytic activity [9]	Relative proteolytic activity [10]	Relative proteolytic activity [11]	Cleavage of membrane-bound CD23 from the cell surface (membrane-bound CD23)	also measured
IFN-γ: interferon-γ													Up-regulation of ADAM8 at the protein level (ADAM8): approximately ten-fold
B1	*	***	****	*****	*****	***	***	***	***	***	*		
B2	*	***	****	*****	*****	***	***	***	***	***	*		
B3	*****	(-)	(-)	(-)	(-)	(-)	(-)	***	(-)	***	***	does not cleave CD 23	
B4	*	***	****	*****	*****	***	***	***	***	***	*		Hill coefficient [3]: allosteric kinetics with a Hill coefficient of approximately 3; K0.5 (substrate concentration at which the enzyme activity was 50% of the Vmax) [3]: 5 µM; Hill coefficient [4]: allosteric kinetics with a Hill coefficient of approximately 3; K0.5 (substrate concentration at which the enzyme activity was 50% of the Vmax) [4]: 5 µM; FRET peptide zymography [5]: lanes 2 and 3 contain active, processed, ADAM8 preparations; Hill coefficient [5]: allosteric kinetics with a Hill coefficient of approximately 3; K0.5 (substrate concentration at which the enzyme activity was 50% of the Vmax) [5]: 2.5 µM; Hill coefficient [10]: allosteric kinetics with a Hill coefficient of approximately 3; K0.5 (substrate concentration at which the enzyme activity was 50% of the Vmax) [10]: 5 µM
B5												similarly found to cleave membrane-bound CD23	
